In paper PMC13399505:

Key:
[1] = target: BUNV ∆7-Gc-HA (HA-tagged head/stalk-deleted Gc glycoprotein expressed by rBUNV-∆7-Gc-HA) (Bunyamwera orthobunyavirus); experiment: affinity purification with mass spectrometry; C6/36 (insect) cells mock-infected or infected at MOI 1, 24 hpi; anti-HA immunoprecipitation of Gc-HA, TMTpro 16plex TMT-MS of the bead fractions, three biological repeats; abundances normalised to common Gc peptides
[2] = target: BUNV ∆7-Gc-HA (HA-tagged head/stalk-deleted Gc glycoprotein expressed by rBUNV-∆7-Gc-HA) (Bunyamwera orthobunyavirus); experiment: affinity purification with mass spectrometry; A549 (mammalian) cells mock-infected or infected at MOI 1, 24 hpi; anti-HA immunoprecipitation of Gc-HA, TMTpro 16plex TMT-MS of the bead fractions, three biological repeats; abundances normalised to common Gc peptides

Substance: BUNV nucleocapsid protein (NP) (from UniProt P16495 1-233) (natural protein)
- log2 fold change of NP precipitated, WT-Gc-HA over ∆7-Gc-HA (log2 fold change) [1]: 2.76
- log2 fold change of NP precipitated, WT-Gc-HA over ∆7-Gc-HA (log2 fold change) [2]: 0.24
